# Measured values as given in the domain aggregation screens of Martell et al. (2025).
# Test: soluble fraction after stress (log2 fold change); higher = more stays soluble; pooled small domains, quantitative proteomics
# Details: stress: 50 degC
# Method in brief: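 Pooled custom libraries of small protein domains were each held under stress at 50°C. The read-out, high-throughput quantitative proteomics, tracked how much of each protein stayed soluble. This is reported as a base-two log fold change used to indicate aggregation propensity. Higher values mean more protein remains in solution.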
row,Sequence,soluble fraction (log2)
1,HMQSAEMTLDREGQPVQVRVELTGNEARITFLSDQEQTREALDAGMAQLRELLEQQGMVLAGVTV,-0.0108
2,HMTSLAEQAYRHIRDKLSNGAFVPGEQLVNRVLATEIGVSVIPVREAINRLATEGLVKHVPGSGAFVRQ,0.0904
3,HMVGPAHIGLAVAKDQLPHWERHLTANGVEIEGRMRWDHGGESIYFRDPDAHLLELVTPGIWAN,-0.0453
4,HMYESAMSDLHARIMSSDDPHGEIYKMLTQSGPEAKYIQDMYNETSIDRGLHPDDDFEDIIDAMVAELDD,-0.479
5,HMSAQDLIVRRDSARIEARVTEISPTEIRYKRASNPDGPTYVLPLGDVRSIRYANGEEEVFAPA,-0.138
6,HMSDIQKGTQINLVNEPLYVSSKTSIVSTYKTGTYYTWGFEANNRIAITNKLENIGVKGQVTGWINKP,-1.1
7,HMGGFSVTAEAFDGTPEVGKTVGFTAGSTKIKVEDTKGDATFGTILEKETVGFGEGKYTYFYIGL,-0.223
8,HMEDGEALARAVASLPGKYREVLFLKYSHGYSVDEIALILSMSKENVKKTIQRARKKLEQLLESE,-0.898
9,HMKSLVDLEISIVKKDMNYFVLPKINGEPLLMERISASEYKDFQLGKLSKEDIFQKHYPDYSEENIKNGRG,0.145
10,HMDAVKKKVQSTNTLLDVLKQMLPQTSSNTLRKMLTNQRITVDGETIHRAKHTVEKDQTVEIHPKP,0.256
11,HMVEVPEQLRDLLERSIEDLAELSVRSRNSLQKENIQTLGDLVQRTEEEMLGIENFGKKSLTEIAAFL,-0.101
12,HMVSRKIENPYWANKEKQHIIAEFFYPDTNKRVTASIMNDGSNRDYEEILRGYSIEQIDANTNRRLEER,0.436
13,HMEVSTRQVRAALRDIIEAEDKKRPLSDEAITARLREQGLPVARRTVAKYREQMGILAARLRK,-0.309
14,HMSSPDMSLLYSELDVKDSGQIVTILEQRNIPYEVRNNGSQIYIPSNNVQRIRLSLAQEGLPSG,-0.0716
15,HMTPTRQATVSVAALNVREQPSLQGRRLGKLTQGTTLTVVGPPGEWLKIEYKGETGFVYASYTSLG,-1.59
16,HMPAKIIKKSFVYNPIHRDTEYLAQFLQGEGQVSASGDKLVYYGTVEDISRIKSVLQSVDTPS,0.0363
17,HMKQPNSYGSVHKLPGKRRKPWRVRKTSGWLLDEQSGTVKQQYITIGYYATKQEALIALADYNENP,-1.62
18,HMEDSAKRHQIMDGARRVFMDLGFDGASMNEIARAAGVSKGTLYVYFTDKNRLFEAIVEQESL,-1.37
19,HMPGKVSDAGATAKDNRLFLEAVFWRVRTGSPWRDLPPAFGHWNSQFRRFRRWAKAGVFESLFNA,0.0893
20,HMLFVKLSDAQRSMFGAKLARDARIQSEYAQKLPSENYEVFGKALADMLLDETHFKTFYPLLVEYGYTQPK,-0.406
21,HMSTFTPYLVKVTTSVLNIRKGAGTNYGTNGSIRDMGTYTIVAEADGQGASKWGKLKSGAGWISLDYTKK,-1.94
22,HMRRVRRTRRLLQDGLLGLMQHKAVADISVKELAEAADVARATVYVHFKDPADVLHQLEQGLY,-0.0324
23,HMFGIEIPEEAGKLQDYTLTDDDLEGGNTLKEIQFPQGARVVIIRRDDKFIIPDGSVELQSGDQLLIIYGE,-0.578
24,HMFEDEYLETMYAFYETDPQALVRTGDLASSLKVSPASATEMVQRLASKGFVDYIPYKGASLTELGLAM,-0.184
25,HMPAAPVFLQKDLLDAGLIGQADSAARREKLGKILGIGYGNGKVMLQRLNSFGIERDAFEQAVQE,0.0718
26,HMLAQVSDEGPIRAMVEAVMARSTQQLEDYKNGKVKLRQYFFGEVMKAAKGKANPTVINKLLDEMLPETL,0.255

row,Sequence,soluble fraction (log2)
1,HMNTGFPIILETSDAANLTVGAPIMYRGVEVGKIRNMELNSLGDRVLIHILIGHKYQHLVRQNSEFWFSS,-4.54
2,HMKMATITKRTNPSGAVVYRAQVRVKREGYPPYSESRTFSKKSLATEWAKRREFEIETNPDLLFN,-1.26
3,HMTLSDIGHAVRTRRTELGLSQVQLARLSGLSRQTLVGLENGTLNDLGINRVAQLLAVLGLDAP,-0.827
4,HMSINTIIAKNLNRLRNERNLSLGQLAELSGVSKVMLSQIEKGDSNPTVNTIWKIASGLNVPYTAILDQP,-0.0848
5,HMEDVLVTQIIQLKHVDANDMKTLFTPLLSRGSSQLLAYPQSNVLIITDTRSNIKKITEILDIIDKS,-0.629
6,HMKDPSFELMSVAESFYRSGNVDHAVYALEKYLEVYADGDYTDRAHDLLSQARKGLTYPHGYPPLQI,-1.21
7,HMKQVEVESVIGKSEEAANSILTKAGLKVNIGYKEDSSKPTDTVLSQDPAPGEKVDEGTTVTIVVNNYKKP,0.0614
8,HMPVASNRDVNLDIGERVFVQEWAPNRTARVQYRGSPWEARLAPGAPAAAGEHRVSAVEGNWLVLEPA,-0.0102
9,HMTKINAPMPGNILDVKVNVGDHVEANQLVLMLEAMKMENEIFTPVAGTVVGVHVKKGDSVNSDDLLISI,-0.228
10,HMDSLARKTVNGAEFYIYPVESAEGFYSLRRKFGVSQEEVIKYNPSAQNGLKSGQVLLIPVT,-0.176
11,HMNNESEGAIMLRQYSSLSAYLTKYNIDVNSKKAQQYASSLKLAQEKGSAEGQKYLSSISSELDD,-0.158
12,HMSAEVMLRRLIDENDPSSENARYILAVMLERKKILAPVDVKNEKKSKMLFYEHQKTGEAFIVRDP,-0.267
13,HMNNQIFGLKFRQLRKQQHITLAKAAAGITSRQSLGNWETGKGELAFEKVLLLLKKINVQPIDFLESSIS,-3.67
14,HMDSLQDFAYEEIKKRIQNGEYAPGTKLNTQEISDSLGISRSPVLAAINRLIALGLVEATPRKGTTVA,0.0527
15,HMEEEPALLRDLLAKTLEFGLIPQLSHHPALADRTQQLASAVRAAGSASALRNAAASLKSLWIDVDQ,-0.0318
16,HMSRWHEFLNKSEDGMKELDEQNQKVLTLLILQRFYQTPFQAKEDEEFYREFFERLSSVNEILG,0.0126
17,HMSDMIGQNIRRLRTEKQMTQKALADKLFVTAQAVSRWENGEVEPSLSTVTEIARIFNVSADEILGI,-0.0125
18,HMDNPYEVFIPNSYIGQRLDQTLASLFPQFSRSRLQNWLASGNLLVNGKIVKPKTKILGGEQINILDPYN,-0.339
19,HMPIRMLQVQKTNTGYLNVRDTPSVSGALIGKVFPGDMLSSTEERDGWFLVAVPQGGTGWVSGDYVKTTS,-0.0387
20,HMFLSQQDINRANAASVTDMGDIIRRTFERNAAEINGLELSDAEKKDAVKQMATLATTALKTAAGAVNPY,-0.132
21,HMGTGSSAERITMLNSILERQIQAMEIQGNPDAPIVNIQKIYTTLQRIVETAGLKDVDQFFMNPLQGQKEM,-0.253
22,HMDKATMRWEQIEKFLETHPYIMNADVRALFNVSAATANRILATLTTEGKLVKYREGGHWAYKY,-0.544
23,HMSESGTFRAEAADAGRRLDVALAERLRLSRAAAQRLIAAGLVLVEGSPARKRQILHAGETVAWRAAPP,-0.127
24,HMQNEQIAFSKFLQEVDSGRVVQVEIQGNNIKGILSDGSKFYTYSPNYPELVGKLSEKGVNIVASPVE,0.0802
25,HMQISDESSIAKIADEVISEFPSQVSEFRSGKEKVLQFLIGQVMKKTKGKANPQITAKILREKLS,0.119
26,HMVIANADVRAKFSKGKDSFVKYYFKEKVLKDGFTEEVKNNIVQALFYLQIVTRIDGESGVLIIDY,-0.0492

row,Sequence,soluble fraction (log2)
1,HMAGTAMRATTAVNVRSGAGTNYSRIGLLQAGEQIQALSSKNGWTQVSYKGRTGYVASAYLASL,-0.309
2,HMVELPDLIGKSKRLAFTQLEISGLKIGKIIYEPDLAKDAVLKILYNGKIVKAGEQLPRFATVDLVLG,-0.0407
3,HMFDFGNHLRMLREKHGISQEELGRRVGRAGSVISNYENNIKIPTLDVLTTMARIYDVSLDYLVG,-1.36
4,HMSSDLLGVRVRRARARAGLTRRRLSLLSGVSERFLAQLESGQGNISIVLIRRVAAALGAELVELIGS,-0.74
5,HMVEMIGLQMVGKSGIASTVLRPSGKVRIDGVVYDAVSEDGFIEKGQAVKVLRYETGQVYVEKL,-0.254
6,HMPNQLLELVEMEIRDLLNEYEFPGDDTPIIQGSALKALEDPMGPWGDKIMDLMDAVDSYIPDPE,-0.581
7,HMGAFAIHTASELSAGMRIRHERFGPGVITGIDTANPASGARIQVDFDNGTSKTLLLSYAKFQI,-0.622
8,HMKSTPMYATAIVNIRSKAGTDSEILGKLNPSEEISVISSENGWSKVSYNGKEAYISSNYLSNAKP,-0.175
9,HMNINLDINTYTVKELEKLLKLEVPYSDNNVFEKKNLMVKMIQTSTIAETKKEELYIFLDNIYNRLTNNLE,-1.35
10,HMIEYILDYLANRGVYAASQGEQQQMEDGIARYLQENGLEDGNTGAYYQKYVSNHLQQISASDLKAYFLN,-0.529
11,HMNILDPTVMKNILDKNHEEFIAIYESAPLGQKTIINSMVFDKRLNGENVDANILMYLQNKTNIDYINIEP,-0.167
12,HMSQDEKITNYIYEGNKNTQTEAFVEAEKSYRKALSLSPEKPEALYNLGNTHFLDKQYDEASQRFF,0.0647
13,HMGRYDWIEQIDDPVLAERLKHLTEDDLELLTRYVFEDATQKELASQYGIGQQSVSKRLKKLKSFLTK,0.00228
14,HMAQPIPSGADIRAAREAAGMTLRRFAEYIAGPDFSTWSRYETGKPIRVKNISPEVWQRVRKFIAQNKG,-0.0609
15,HMSQSMEVLYTDLTDKDAAAIVEKLEEEKIPYQLEDQGTTILVPPGVKYTTRLKLAAEDLPKG,0.000352
16,HMASRSQTEIMHLLSSGLPKHELVTALQSLLGISKPTAYKYLSQDVSIAYDHMVKILEYPPFQRVLYQ,-1.34
17,HMDNEVTIAVQVNGKLRDKLIVALDTPNEKIEQLALALPKVIQNTSGLTVRKVIVIPNRLVNIVA,-0.171
18,HMEDETAKVLRLLAENNGYLPYNDKSDPTDIYAFFGMSKKAFKMTTGNLYKQKKIQFTQTGIQLIE,-0.347
19,HMVDKDFKPLYASLERLDSTSIIEILDSNRIDYRIDQRSGALLVDADQIHQARLSLASAGMPA,-0.116
20,HMLNLNEAEKSIYVLIKKNESNNLNKVKEDSNLSNKAWDKGIKNLVKNNLVKVVKSNEGLFIQLV,-0.345
21,HMGRFPSLTPVVIDALTAQYREHPGWTVQLHVDNLRVVLAANQTPLPSYPTIRRYLLAQGMRRQTRP,-0.426
22,HMSEKLTLEAANEAAGMRIDKWLAMQLPELSRSRIEALISGGGVVVNGKNPSKSLKLKGGEQIELEIPE,0.0725
23,HMKVTTGIDGLIGEEGVALSDFSGKGKIMVHGEIWNAEFSGEVKKGEVLLVEKANGMTLITRKKN,0.561
24,HMPTVLKQGSTGQEVKELQQALSKLGYRVTVTGEFDTATHYGVVRFQRKHRLTIDGIVGPQTLSKIRAHQK,-2.86
